From patent US20170015742A1 (published 2017) come the findings set out here.

B1: CODV012 (bispecific antibody, human IgG1, kappa, L234A L235A)
heavy: EVQLVQSGSELKKPGASVKVSCKASGYTFTNYGMYWVRQAPGQGLEWMGWINTETGKPTYADDFKGRFVFSLDTSVSTAYLQISSLKAEDTAVYYCARTNYYYRSYIFYFDYWGQGTMVTVSSGGGGSGGGEFVLTQSPGTLSLSPGERATLSCERSSGDIGDSYVSWYQQKPGQAPRLVIYADDQRPSGIPDRFSGSGSGTDFTLTISRLEPEDFAVYYCQSYDINIDIVFGGGTKVEIKGGGSGASTKGPSVFPLAPSSKSTSGGTAALGCLVKDYFPEPVTVSWNSGALTSGVHTFPAVLQSSGLYSLSSVVTVPSSSLGTQTYICNVNHKPSNTKVDKKVEPKSCDKTHTCPPCPAPEAAGGPSVFLFPPKPKDTLMISRTPEVTCVVVDVSHEDPEVKFNWYVDGVEVHNAKTKPREEQYNSTYRVVSVLTVLHQDWLNGKEYKCKVSNKALPAPIEKTISKAKGQPREPQVYTLPPSREEMTKNQVSLTCLVKGFYPSDIAVEWESNGQPENNYKTTPPVLDSDGSFFLYSKLTVDKSRWQQGNVFSCSVMHEALHNAYTQKSLSLSPGK
light: EVTLRESGPALVKPTQTLTLTCTFSGFSLSTYGMGVGWIRQPPGKALEWLANIWWDDDKYYNPSLKNRLTISKDTSKNQVVLTMTNMDPVDTATYYCARIESIGTTYSFDYWGQGTMVTVSSGGGGSGGGDTVLTQSPATLSLSPGERATLSCRASESVSTHMHWYQQKPGQAPRLLIYGASNLESGVPARFSGSGSGTDFTLTISSLEPEDFAVYFCQQSWNDPFTFGQGTKLEIKGGGSGRTVAAPSVFIFPPSDEQLKSGTASVVCLLNNFYPREAKVQWKVDNALQSGNSQESVTEQDSKDSTYSLSSTLTLSKADYEKHKVYACEVTHQGLSSPVTKSFNRGEC
notes: Anti-human VEGF-A/anti-human PDGF-BB cross-over DVD-Ig (CO-DVD-Ig); also called PR-1571824
B2: CODV014 (bispecific antibody, human IgG1, kappa, L234A L235A)
heavy: EVQLVQSGSELKKPGASVKVSCKASGYTFTNYGMYWVRQAPGQGLEWMGWINTETGKPTYADDFKGRFVFSLDTSVSTAYLQISSLKAEDTAVYYCARTNYYYRSYIFYFDYWGQGTMVTVSSGGGGSEFVLTQSPGTLSLSPGERATLSCERSSGDIGDSYVSWYQQKPGQAPRLVIYADDQRPSGIPDRFSGSGSGTDFTLTISRLEPEDFAVYYCQSYDINIDIVFGGGTKVEIKGGSASTKGPSVFPLAPSSKSTSGGTAALGCLVKDYFPEPVTVSWNSGALTSGVHTFPAVLQSSGLYSLSSVVTVPSSSLGTQTYICNVNHKPSNTKVDKKVEPKSCDKTHTCPPCPAPEAAGGPSVFLFPPKPKDTLMISRTPEVTCVVVDVSHEDPEVKFNWYVDGVEVHNAKTKPREEQYNSTYRVVSVLTVLHQDWLNGKEYKCKVSNKALPAPIEKTISKAKGQPREPQVYTLPPSREEMTKNQVSLTCLVKGFYPSDIAVEWESNGQPENNYKTTPPVLDSDGSFFLYSKLTVDKSRWQQGNVFSCSVMHEALHNAYTQKSLSLSPGK
light: B1 light
notes: Anti-human VEGF-A/anti-human PDGF-BB cross-over DVD-Ig (CO-DVD-Ig); also called PR-1571826
B3: CODV015 (bispecific antibody, human IgG1, kappa, L234A L235A)
heavy: B1 heavy
light: EVTLRESGPALVKPTQTLTLTCTFSGFSLSTYGMGVGWIRQPPGKALEWLANIWWDDDKYYNPSLKNRLTISKDTSKNQVVLTMTNMDPVDTATYYCARIESIGTTYSFDYWGQGTMVTVSSGGGGSGGGDTVLTQSPATLSLSPGERATLSCRASESVSTHMHWYQQKPGQAPRLLIYGASNLESGVPARFSGSGSGTDFTLTISSLEPEDFAVYFCQQSWNDPFTFGQGTKLEIKGGSRTVAAPSVFIFPPSDEQLKSGTASVVCLLNNFYPREAKVQWKVDNALQSGNSQESVTEQDSKDSTYSLSSTLTLSKADYEKHKVYACEVTHQGLSSPVTKSFNRGEC
notes: Anti-human VEGF-A/anti-human PDGF-BB cross-over DVD-Ig (CO-DVD-Ig); also called PR-1571827
B4: CODV010 (bispecific antibody, human IgG1, kappa, L234A L235A)
heavy: EVTLRESGPALVKPTQTLTLTCTFSGFSLSTYGMGVGWIRQPPGKALEWLANIWWDDDKYYNPSLKNRLTISKDTSKNQVVLTMTNMDPVDTATYYCARIESIGTTYSFDYWGQGTMVTVSSGEVQLVQSGSELKKPGASVKVSCKASGYTFTNYGMYWVRQAPGQGLEWMGWINTETGKPTYADDFKGRFVFSLDTSVSTAYLQISSLKAEDTAVYYCARTNYYYRSYIFYFDYWGQGTMVTVSSGGASTKGPSVFPLAPSSKSTSGGTAALGCLVKDYFPEPVTVSWNSGALTSGVHTFPAVLQSSGLYSLSSVVTVPSSSLGTQTYICNVNHKPSNTKVDKKVEPKSCDKTHTCPPCPAPEAAGGPSVFLFPPKPKDTLMISRTPEVTCVVVDVSHEDPEVKFNWYVDGVEVHNAKTKPREEQYNSTYRVVSVLTVLHQDWLNGKEYKCKVSNKALPAPIEKTISKAKGQPREPQVYTLPPSREEMTKNQVSLTCLVKGFYPSDIAVEWESNGQPENNYKTTPPVLDSDGSFFLYSKLTVDKSRWQQGNVFSCSVMHEALHNAYTQKSLSLSPGK
light: DTVLTQSPATLSLSPGERATLSCRASESVSTHMHWYQQKPGQAPRLLIYGASNLESGVPARFSGSGSGTDFTLTISSLEPEDFAVYFCQQSWNDPFTFGQGTKLEIKGGGSGGGEFVLTQSPGTLSLSPGERATLSCERSSGDIGDSYVSWYQQKPGQAPRLVIYADDQRPSGIPDRFSGSGSGTDFTLTISRLEPEDFAVYYCQSYDINIDIVFGGGTKVEIKGGGSGRTVAAPSVFIFPPSDEQLKSGTASVVCLLNNFYPREAKVQWKVDNALQSGNSQESVTEQDSKDSTYSLSSTLTLSKADYEKHKVYACEVTHQGLSSPVTKSFNRGEC
notes: Anti-human VEGF-A/anti-human PDGF-BB cross-over DVD-Ig (CO-DVD-Ig); also called PR-1571823
B5: CODV009 (bispecific antibody, human IgG1, kappa, L234A L235A)
heavy: EVQLVQSGSELKKPGASVKVSCKASGYTFTNYGMYWVRQAPGQGLEWMGWINTETGKPTYADDFKGRFVFSLDTSVSTAYLQISSLKAEDTAVYYCARTNYYYRSYIFYFDYWGQGTMVTVSSGEVTLRESGPALVKPTQTLTLTCTFSGFSLSTYGMGVGWIRQPPGKALEWLANIWWDDDKYYNPSLKNRLTISKDTSKNQVVLTMTNMDPVDTATYYCARIESIGTTYSFDYWGQGTMVTVSSGGASTKGPSVFPLAPSSKSTSGGTAALGCLVKDYFPEPVTVSWNSGALTSGVHTFPAVLQSSGLYSLSSVVTVPSSSLGTQTYICNVNHKPSNTKVDKKVEPKSCDKTHTCPPCPAPEAAGGPSVFLFPPKPKDTLMISRTPEVTCVVVDVSHEDPEVKFNWYVDGVEVHNAKTKPREEQYNSTYRVVSVLTVLHQDWLNGKEYKCKVSNKALPAPIEKTISKAKGQPREPQVYTLPPSREEMTKNQVSLTCLVKGFYPSDIAVEWESNGQPENNYKTTPPVLDSDGSFFLYSKLTVDKSRWQQGNVFSCSVMHEALHNAYTQKSLSLSPGK
light: EFVLTQSPGTLSLSPGERATLSCERSSGDIGDSYVSWYQQKPGQAPRLVIYADDQRPSGIPDRFSGSGSGTDFTLTISRLEPEDFAVYYCQSYDINIDIVFGGGTKVEIKGGGSGGGDTVLTQSPATLSLSPGERATLSCRASESVSTHMHWYQQKPGQAPRLLIYGASNLESGVPARFSGSGSGTDFTLTISSLEPEDFAVYFCQQSWNDPFTFGQGTKLEIKGGGSGRTVAAPSVFIFPPSDEQLKSGTASVVCLLNNFYPREAKVQWKVDNALQSGNSQESVTEQDSKDSTYSLSSTLTLSKADYEKHKVYACEVTHQGLSSPVTKSFNRGEC
notes: Anti-human VEGF-A/anti-human PDGF-BB cross-over DVD-Ig (CO-DVD-Ig); also called PR-1571821
B6: CODV011 (bispecific antibody, human IgG1, kappa, L234A L235A)
heavy: EVQLVQSGSELKKPGASVKVSCKASGYTFTNYGMYWVRQAPGQGLEWMGWINTETGKPTYADDFKGRFVFSLDTSVSTAYLQISSLKAEDTAVYYCARTNYYYRSYIFYFDYWGQGTMVTVSSGGGGSGGGGSEFVLTQSPGTLSLSPGERATLSCERSSGDIGDSYVSWYQQKPGQAPRLVIYADDQRPSGIPDRFSGSGSGTDFTLTISRLEPEDFAVYYCQSYDINIDIVFGGGTKVEIKGGGSGASTKGPSVFPLAPSSKSTSGGTAALGCLVKDYFPEPVTVSWNSGALTSGVHTFPAVLQSSGLYSLSSVVTVPSSSLGTQTYICNVNHKPSNTKVDKKVEPKSCDKTHTCPPCPAPEAAGGPSVFLFPPKPKDTLMISRTPEVTCVVVDVSHEDPEVKFNWYVDGVEVHNAKTKPREEQYNSTYRVVSVLTVLHQDWLNGKEYKCKVSNKALPAPIEKTISKAKGQPREPQVYTLPPSREEMTKNQVSLTCLVKGFYPSDIAVEWESNGQPENNYKTTPPVLDSDGSFFLYSKLTVDKSRWQQGNVFSCSVMHEALHNAYTQKSLSLSPGK
light: EVTLRESGPALVKPTQTLTLTCTFSGFSLSTYGMGVGWIRQPPGKALEWLANIWWDDDKYYNPSLKNRLTISKDTSKNQVVLTMTNMDPVDTATYYCARIESIGTTYSFDYWGQGTMVTVSSGGGGSGGGGSDTVLTQSPATLSLSPGERATLSCRASESVSTHMHWYQQKPGQAPRLLIYGASNLESGVPARFSGSGSGTDFTLTISSLEPEDFAVYFCQQSWNDPFTFGQGTKLEIKGGGSGRTVAAPSVFIFPPSDEQLKSGTASVVCLLNNFYPREAKVQWKVDNALQSGNSQESVTEQDSKDSTYSLSSTLTLSKADYEKHKVYACEVTHQGLSSPVTKSFNRGEC
notes: Anti-human VEGF-A/anti-human PDGF-BB cross-over DVD-Ig (CO-DVD-Ig); also called PR-1575521

T1 sequence (P15692 other isoform, or with tags, fused parts or gaps limits assumed): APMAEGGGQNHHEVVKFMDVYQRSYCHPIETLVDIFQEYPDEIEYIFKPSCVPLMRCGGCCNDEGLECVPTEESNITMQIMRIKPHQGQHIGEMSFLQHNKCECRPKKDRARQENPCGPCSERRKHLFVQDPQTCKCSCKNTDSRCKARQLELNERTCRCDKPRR

The first test addresses T1, Human VEGF-A 165 (human, UniProt P15692 207-395).
T1 construct: also called hVEGF165
Description: SPR (Biacore), method of Example 1.1. Here is the method: (§1) Unreacted moieties on the biosensor surface were blocked with ethanolamine. For kinetic analysis, rate equations derived from the 1:1 Langmuir binding model were fitted simultaneously to multiple antigen injections (using global fit analysis) with the use of Scrubber 2 (BioLogic Software), Biacore Biaevaluation 4.0.1 software or Biacore T100 Evaluation software. Purified antibodies or DVD-Ig molecules were diluted in running buffer for capture across goat anti-human Fc reaction surfaces. Antibodies or DVD-Ig molecules to be captured as a ligand (1 μg/ml) were injected over reaction matrices at a flow rate of 10 μl/minute. During the assay, all measurements were referenced against the capture surface alone (i.e., with no captured antibody or DVD-Ig molecule). […] The equilibrium dissociation constant KD (M) of the reaction between antibodies and the target antigen was then calculated from the kinetic rate constants by the following formula: KD=Koff/Kₒₙ. Binding was recorded as a function of time and kinetic rate constants were calculated. In this assay, on-rates as fast as 10⁶M⁻¹s⁻¹ and off-rates as slow as 10⁻⁶ s⁻¹ could be measured.
A general note: SPR reads the build-up and loss of mass on a sensor chip optically.
For the molecule B1, the Kd is 0.028 nM and the on-rate (kon) came out at 2.7e+06 M⁻¹ s⁻¹.

Molecule B2 came in with a Kd of 0.036 nM and an on-rate constant (kon) of 2.2e+06 M⁻¹ s⁻¹.

Turning to B3, binding was put at a Kd of 0.024 nM and the on-rate (kon) worked out at 2.7e+06 M⁻¹ s⁻¹.

In turn, B4 showed a Kd of 6.6 nM and a kon of 57000 M⁻¹ s⁻¹.

Molecule B5 gave a Kd of 26 nM.

Take B6: the dissociation constant Kd was found to be 0.038 nM and the on-rate constant (kon) is 1.1e+06 M⁻¹ s⁻¹.

In a further test the target is T2, Human PDGF-BB (human, UniProt P01127 82-190).
T2 construct: also called hPDGF-BB
T2 sequence (P01127 82-190 limits assumed): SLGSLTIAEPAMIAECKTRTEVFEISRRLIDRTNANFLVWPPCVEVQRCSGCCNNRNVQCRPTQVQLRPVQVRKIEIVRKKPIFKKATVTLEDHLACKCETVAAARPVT
In words: SPR (Biacore), method of Example 1.1. Here is the method: as §1
The molecule B1 registered an equilibrium dissociation constant (Kd) of 0.0015 nM and a kon of 7e+07 M⁻¹ s⁻¹.

Molecule B2 yielded a dissociation constant Kd of 0.0024 nM and an on-rate constant (kon) of 5.5e+07 M⁻¹ s⁻¹.

As for B3, binding was put at a Kd of 0.0013 nM and the kon was found to be 7e+07 M⁻¹ s⁻¹.

Regarding B4, the Kd came out at 0.004 nM and the association rate constant (kon) came out at 4.1e+07 M⁻¹ s⁻¹.

Take B5: the Kd came to 0.0056 nM and the kon turned out to be 3.5e+07 M⁻¹ s⁻¹.

For B6, the affinity, expressed as Kd, was 0.0018 nM and the kon came out at 3.8e+07 M⁻¹ s⁻¹.

Usually Kd stands for a measure of binding affinity in units of concentration. Higher therefore signals a looser complex. Broadly, the kon is the second-order rate constant of association.
